How the values were obtained:
[1] = molecular target: T1, recombinant glycosylated IFN-β (Pharmapark, Moscow, Russia) (Homo sapiens, UniProt P01574, glycosylated); test: ELISA; Kd by the method of Friguet with the Klotz equation; murine antibody and IFN-β in solution at equilibrium, free antibody measured by ELISA
T1 construct: human interferon beta, glycosylated form (IFN-β-1a); also called IFN-β-1a; IFNβ-1a; source: bought: Pharmapark

E. coli-HuIFN-γ = molecular target: T2, E. coli-HuIFN-γ (Homo sapiens, UniProt P01579); test: ELISA; indirect ELISA of the hybridoma panel; antigens adsorbed overnight at 4 °C in PBS pH 7.2 at 2 μg/mL, 50 μL/well; anti-mouse immunoglobulin-HRP, OD450
T2 construct: human interferon gamma expressed in E. coli; source: expressed in E. coli
T2 sequence (P01579 24-161): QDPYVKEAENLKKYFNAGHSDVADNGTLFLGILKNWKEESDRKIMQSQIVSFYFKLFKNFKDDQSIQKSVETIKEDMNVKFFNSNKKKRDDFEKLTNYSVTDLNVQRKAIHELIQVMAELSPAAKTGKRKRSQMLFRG

T1 sequence (P01574 22-187): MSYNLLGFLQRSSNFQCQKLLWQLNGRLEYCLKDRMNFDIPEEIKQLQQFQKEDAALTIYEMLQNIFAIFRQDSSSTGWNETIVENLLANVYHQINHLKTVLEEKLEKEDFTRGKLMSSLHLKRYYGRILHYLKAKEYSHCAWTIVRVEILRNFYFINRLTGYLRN

Kd [1]: 3.8 nM
binding result (E. coli-HuIFN-γ): no binding
B1: murine monoclonal antibody B16 against IFN-β (antibody, V domains shown)
VH: EVKLVESGGGLVQPGGSLKLSCAASGFTFTSYTMSWVRQTPEKRLEWVAYISNGGGSTYYPDTVKGRFTISRDNAKNTLYLQMSSLKSEDTAMYYCARLDWVFAYWGQGTLVTVSA
VL: DIVMTQSHKFMSTSVGDRVSITCKASQDVGTAVAWYQQKPGQSPKLLIYWASTRHTGVPDRFTGSGSGTDFTLTISNVQSEDLADYFCLQYSSFPYTFGGGTKLEIK
notes: VH of murine B16; mouse IgG heavy-chain constant region; VL of murine B16; mouse kappa light-chain constant domain (all L-chains of the panel were of the kappa isotype); Member of the hybridoma panel B1-B21; also called murB16; prototype mouse antibody; source: hybridoma B16

— paper PMC8699518 (Biomolecules, 2021)
